The values that follow are results of earlier work, collected in PMC11133458.

This data set deals with Glu14 (UniProt position 14, GAILAEVIGTT). Conditions: TPP-bound EmrE (Glu14 of monomer A deprotonated).

Take “EmrE (multidrug efflux transporter, small multidrug resistance family) (Escherichia coli)”: the pKa is reported as 6.8.
